From PMC3169474

Tested on: TBP2
Test: pull-down
Conditions: negative control, biotin-dUTP/dATP fill-in, 20 mM Tris pH 8.0, 1 mM EDTA, 5 mM DTT, 5 mM MgCl2, 100 mM KCl, 0.125% NP40, protease inhibitors, overnight at 4 C, washes 100-200 mM KCl (up to 400 mM tested)

“GATCCCGGAGTTAA / GATCTTAACTCCGG [unmethylated concatamerized GATC-CCGG-AGTTAA probe (SssI-)]” was tested, and the binding signal (residual affinity) was 4 % recovered.

In the case of “GATCCCGGAGTTAA / GATCTTAACTCCGG [methylated concatamerized GATC-CCGG-AGTTAA probe (SssI+)]”, the binding signal (very low affinity, 5-methylcytosine at CpG (SssI), both strands) is reported as under 1 % recovered.
